In article PMC11094088, “Molecular mechanism of Oxr1p mediated disassembly of yeast V-ATPase” (EMBO Reports, 2024):

B1: Oxidation Resistance protein 1 (Oxr1p), recombinant (natural protein, yeast, UniProt Q08952 1-273, looked up)
chain: MFGVKDAIFKIKRSIAGTDSSDSTAYTTASESSPQLKDSHNPFRNKTTSERTIVEEGSLPPVRLNGYLPSTKNKLLTPEMCDEIRTLMPTRIQLYTEWNLLYSLEQHGSSLHSLYSNVAPDSKEFRRVGYVLVIKDRKNGIFGAYSNEAFHPNEHRQYTGNGECFLWKLDKVPDVNISEKEESEQEGKEGKEEGDKEERWRFSGYPYTGVNEFAIYCTSEFLSMGAGDGHYGLLCDDGLLHGVSNPCQTYGNEVLSKEGKKFSIVALEVWRVG
notes: Oxr1p, yeast TLDc domain protein; construct as described in Khan et al, 2022; also called recombinant Oxr1p; source: E. coli BL21DE3, purified (Ni-NTA, Superdex-75 SEC); not shown: 7xHis, N-terminal, kept

Tests used:
[1] = molecular target: recombinant N-terminally 7×His tagged biotinylated Oxr1p (bio-Oxr1p) (yeast) (UniProt Q08952); experiment: BLI; bio-Oxr1p (10 µg/ml) immobilised on streptavidin biosensors, V1ΔH^(ΔOxr1) with or without recombinant subunit C in solution; 20 mM Tris-HCl pH 7.0, 0.5 mM EDTA, β-mercaptoethanol, 5.0 mg/ml BSA; 23 °C; global fitting
[2] = molecular target: wild-type yeast V-ATPase reconstituted into lipid nanodiscs (V1VoND) (yeast (endogenous) | yeast) (UniProt P16140)
[3] = molecular target: T1, V1 subunit B (the B subunit of the open catalytic site), in the purified V-ATPase (yeast (endogenous), UniProt P16140 1-517); experiment: cryo-EM structure; V-ATPase in lipid nanodiscs (~1-2 mg/ml) vitrified with a twofold molar excess of Oxr1p, no nucleotide; 3-D classes at ~8.2 Å; Oxr1p density in the rotary state 1 class (~31% of particles); conditions: both partners purified
T1 construct: V1 subunit B, yeast; source: endogenous, part of the purified yeast V-ATPase in lipid nanodiscs

[4] = molecular target: wild-type yeast V-ATPase reconstituted into lipid nanodiscs (V1VoND) (yeast (endogenous) | yeast) (UniProt P16140); remark: listed apart in the source
[5] = molecular target: V1ΔH^(ΔOxr1) in the presence of recombinant subunit C (yeast (endogenous) | yeast) (UniProt P16140); experiment: BLI; α-mouse IgG Fc capture biosensors loaded with α-MBP antibody, then MBP-HWT or MBP-H_(chim) (5 µg/ml); 40 nM V1ΔH in solution with buffer, Oxr1p (equimolar), subunit C (twofold molar excess) or Oxr1p + subunit C; TBSE plus 0.5 mg/ml BSA; 23 °C

T1 sequence (P16140 whole entry): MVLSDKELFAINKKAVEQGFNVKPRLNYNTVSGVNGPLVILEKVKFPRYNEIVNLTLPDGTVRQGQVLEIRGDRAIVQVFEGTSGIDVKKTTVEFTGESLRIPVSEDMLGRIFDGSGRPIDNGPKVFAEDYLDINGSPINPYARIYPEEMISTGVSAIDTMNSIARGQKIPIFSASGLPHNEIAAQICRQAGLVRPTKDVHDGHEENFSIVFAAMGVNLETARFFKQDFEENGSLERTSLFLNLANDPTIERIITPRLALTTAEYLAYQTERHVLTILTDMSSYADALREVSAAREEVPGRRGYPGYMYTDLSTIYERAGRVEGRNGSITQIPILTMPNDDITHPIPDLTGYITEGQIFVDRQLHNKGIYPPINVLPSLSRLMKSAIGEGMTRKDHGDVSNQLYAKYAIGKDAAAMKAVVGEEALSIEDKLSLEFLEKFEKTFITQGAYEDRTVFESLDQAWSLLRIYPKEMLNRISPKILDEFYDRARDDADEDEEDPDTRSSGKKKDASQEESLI

Molecule	Kd [1] [nM]	loss of ATPase activity of purified V-ATPase after 30 min with a twofold molar excess of Oxr1p alone [2] [%]	binding result [3]	ATPase activity of purified V-ATPase in nanodiscs left after incubation with a twofold molar excess of Oxr1p, 30 min to 16 h, relative to the starting activity [4] [%]	percent reduction of V1ΔH binding to immobilised H (chim) (subunit C and Oxr1p, against Oxr1p only) [5] [%]	percent reduction of V1ΔH binding to immobilised wild-type H (subunit C and Oxr1p, against Oxr1p only) [5] [%]
V1ΔH^(ΔOxr1) in the presence of recombinant subunit C (from UniProt P16140 1-517; P32610 1-256; P22203 1-233; P39111 1-118; P48836 1-114; P31412 1-392) (complex)	7					
V1ΔH, V1 subcomplex without subunit H (FLAG-tagged subunit G), from the oxr1Δvma13Δ background (from UniProt P16140 1-517; P32610 1-256; P22203 1-233; P39111 1-118; P48836 1-114)	67					
B1		30	binds	70	25	60
